Biological target: A/California/04/2009 H1 (influenza A virus A/California/04/2009) (UniProt C3W5S1)
Test: crystal structure

“A/California/04/2009 H1 (from UniProt C3W5S1 18-520) (natural protein)” gave a stoichiometry N of 2.
